Assay results reported in publication PMC6126693.

Tested on: ZIC2 zinc finger domains (five ZnF)
Experiment: ITC
Conditions: ITC: 300 mM NaCl, 50 mM potassium phosphate, pH 8.0, 25 C, EMSA: binding buffer not specified, 30 min 37 C, 6% PAGE 1x TBE 4 C

Row | Substance | Ka [M⁻¹] | Ka (RNA 60 uM into protein 5 uM) [M⁻¹]
1 | sense PCAT92 RNA (predicted ZIC2-binding region) | 1e+09 | 
2 | antisense PCAT92 RNA |  | 1e+06
